Tests used:
[1] = test system: HeLa Kyoto; experiment: solubility in G1/S (NP-40 vs SDS abundance) (log2 ratio); higher = more soluble; conditions: cell cycle stage: G1/S
[2] = test system: HeLa Kyoto; experiment: solubility change mitosis vs G1/S (difference of NP-40 vs SDS log2 ratios) (log2 ratio difference); higher = more soluble in mitosis
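Wherever solubility change mitosis vs G1/S (difference of NP-40 vs SDS log2 ratios) is given: synchronized HeLa Kyoto cells (double thymidine block for G1/S, nocodazole release for mitosis), protein amounts in NP-40 versus SDS lysates quantified by mass spectrometry, three biological replicates.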
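Wherever solubility in G1/S (NP-40 vs SDS abundance) is given: HeLa Kyoto cells arrested at G1/S by double thymidine block, proteins quantified by TMT10plex mass spectrometry in mild NP-40 versus SDS extracts, three biological replicates.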

Sequence | solubility in G1/S (log2) [1] | solubility change mitosis (log2) [2]
MGSILSRRIAGVEDIDIQANSAYRYPPKSGNYFASHFFMGGEKFDTPHPEGYLFGENMDLNFLGSRPVQFPYVTPAPHEPVKTLRSLVNIRKDSLRLVRYKDDADSPTEDGDKPRVLYSLEFTFDADARVAITIYCQASEEFLNGRAVYSPKSPSLQSETVHYKRGVSQQFSLPSFKIDFSEWKDDELNFDLDRGVFPVVIQAVVDEGDVVEVTGHAHVLLAAFEKHMDGSFSVKPLKQKQIVDRVSYLLQEIYGIENKNNQETKPSDDENSDNSNECVVCLSDLRDTLILPCRHLCLCTSCADTLRYQANNCPICRLPFRALLQIRAVRKKPGALSPVSFSPVLAQSLEHDEHSCPFKKSKPHPASLASKKPKRETNSDSVPPGYEPISLLEALNGLRAVSPAIPSAPLYEEITYSGISDGLSQASCPLAAIDHILDSSRQKGRPQSKAPDSTLRSPSSPIHEEDEEKLSEDVDAPPPLGGAELALRESSSPESFITEEVDESSSPQQGTRAASIENVLQDSSPEHCGRGPPADIYLPALGPDSCSVGIDE [MGRN1] | -0.00834 | 0.156
MGSRPPCGATSSARRACQFPAPMAAAREPELPQEAPATEPAPPPACRFFLEGRCRFGARCRQPHPGAPAPPGREAQPEAGAKKPPLRTAADVIQRIRWDPRLDPADFSVGYVDRFLGVREEPFSAFCWDQPLAALGPGVLAVPQHRVRFFRFHGRLVWDRASRTDLVFGSGSAAGRGPTILDAPNTEGAHGAEGAEWTLAGTGQEAQAAPKRGSTRPLCTGHQEPGVEEPGELEAAQERALGTAADLGTLAPRGRLAGVTEEALKPTAATRTTLLGGKEAQALGVPGGSAETTEAEWGPAAWPEDKRARLSVAAPCQPRPTHFVALMVTEPGLQAEVTKAQEYLVHVAPHCANFLVPSQNLHLTLALLRLAGAGEEAAAIGALRRALLAPGLNAPPRLSFRKLVLLGPHVLCAPPSPTLESMAQVLSQRLEAEGLSTLQSPGQLHPHLTVAKVPHGSQVHLPKLEFTLSQEVGCQPLQTLWLCRIGRTGGPFQPLAEIRLE [LENG9] | 0.366 | -0.034
MGTIHLFRKPQRSFFGKLLREFRLVAADRRSWKILLFGVINLICTGFLLMWCSSTNSIALTAYTYLTIFDLFSLMTCLISYWVTLRKPSPVYSFGFERLEVLAVFASTVLAQLGALFILKESAERFLEQPEIHTGRLLVGTFVALCFNLFTMLSIRNKPFAYVSEAASTSWLQEHVADLSRSLCGIIPGLSSIFLPRMNPFVLIDLAGAFALCITYMLIEINNYFAVDTASAIAIALMTFGTMYPMSVYSGKVLLQTTPPHVIGQLDKLIREVSTLDGVLEVRNEHFWTLGFGSLAGSVHVRIRRDANEQMVLAHVTNRLYTLVSTLTVQIFKDDWIRPALLSGPVAANVLNFSDHHVIPMPLLKGTDDLNPVTSTPAKPSSPPPEFSFNTPGKNVNPVILLNTQTRPYGFGLNHGHTPYSSMLNQGLGVPGIGATQGLRTGFTNIPSRYGTNNRIGQPRP [SLC30A6] | -0.097 | -0.0121
MIATPLKHSRIYLPPEASSQRRNLPMDAIFFDSIPSGTLTPVKDLVKYQNSSLKLNDHKKNQFLKMTTFNNKNIFQSTMLTEATTSNSSLDISAIKPNKDGLKNKANYESPGKIFLRMKEKVLRDKQEQPSRNSSLLEPQKSGNNETFTPNRVEKKKLQHTYLCEEKENNKSFQSDDSSLRASVQGVPLESSNNDIFLPVKQKIQCQQEKKAPLHNLTYELPTLNQEQENFLAVEARNKTLTRAQLAKQIFHSKESIVATTKSKKDTFVLESVDSADEQFQNTNAETLSTNCIPIKNGSLLMVSDSERTTEGTSQQKVKEGNGKTVPGETGLPGSMKDTCKIVLATPRLHITIPRRSKRNISKLSPPRIFQTVTNGLKKNQVVQLQEWMIKSINNNTAICVEGKLIDVTNIYWHSNVIIERIEHNKLRTISGNVYILKGMIDQISMKEAGYPNYLIRKFMFGFPENWKEHIDNFLEQLRAGEKNREKTKQKQKTGRSVRDIRKSMKNDARENQTDTAQRATTTYDFDCDNLELKSNKHSESPGATELNMCHSNCQNKPTLRFPDDQVNNTIQNGGGDDLSNQELIGKKEYKMSSKKLKIGERTNERIIKSQKQETTEELDVSIDILTSREQFFSDEERKYMAINQKKAYILVTPLKSRKVIEQRCMRYNLSAGTIKAVTDFVIPECQKKSPISKSMGTLENTFEGHKSKNKEDCDERDLLTVNRKIKISNLEKEQMLTSDFKKNTRLLPKLKKIENQVAMSFYKHQSSPDLSSEESETEKEIKRKAEVKKTKAGNTKEAVVHLRKSTRNTSNIPVILEPETEESENEFYIKQKKARPSVKETLQKSGVRKEFPITEAVGSDKTNRHPLECLPGLIQDKEWNEKELQKLHCAFASLPKHKPGFWSEVAAAVGSRSPEECQRKYMENPRGKGSQKHVTKKKPANSKGQNGKRGDADQKQTIKITAKVGTLKRKQQMREFLEQLPKDDHDDFFSTTPLQHQRILLPSFQDSEDDDDILPNMDKNPTTPSSVIFPLVKTPQCQHVSPGMLGSINRNDCDKYVFRMQKYHKSNGGIVWGNIKKKLVETDFSTPTPRRKTPFNTDLGENSGIGKLFTNAVESLDEEEKDYYFSNSDSA [MIS18BP1] | -1.77 | 1.22
MIVFGWAVFLASRSLGQGLLLTLEEHIAHFLGTGGAATTMGNSCICRDDSGTDDSVDTQQQQAENSAVPTADTRSQPRDPVRPPRRGRGPHEPRRKKQNVDGLVLDTLAVIRTLVDNDQEPPYSMITLHEMAETDEGWLDVVQSLIRVIPLEDPLGPAVITLLLDECPLPTKDALQKLTEILNLNGEVACQDSSHPAKHRNTSAVLGCLAEKLAGPASIGLLSPGILEYLLQCLKLQSHPTVMLFALIALEKFAQTSENKLTISESSISDRLVTLESWANDPDYLKRQVGFCAQWSLDNLFLKEGRQLTYEKVNLSSIRAMLNSNDVSEYLKISPHGLEARCDASSFESVRCTFCVDAGVWYYEVTVVTSGVMQIGWATRDSKFLNHEGYGIGDDEYSCAYDGCRQLIWYNARSKPHIHPCWKEGDTVGFLLDLNEKQMIFFLNGNQLPPEKQVFSSTVSGFFAAASFMSYQQCEFNFGAKPFKYPPSMKFSTFNDYAFLTAEEKIILPRHRRLALLKQVSIRENCCSLCCDEVADTQLKPCGHSDLCMDCALQLETCPLCRKEIVSRIRQISHIS [RSPRY1] | -0.235 | -0.00113
MKALIVLGLVLLSVTVQGKVFERCELARTLKRLGMDGYRGISLANWMCLAKWESGYNTRATNYNAGDRSTDYGIFQINSRYWCNDGKTPGAVNACHLSCSALLQDNIADAVACAKRVVRDPQGIRAWVAWRNRCQNRDVRQYVQGCGV [LYZ] | -1.78 | 2.19
MKEMSANTVLDSQRQQKHYGITSPISLASPKEIDHIYTQKLIDAMKPFGVFEDEEELNHRLVVLGKLNNLVKEWISDVSESKNLPPSVVATVGGKIFTFGSYRLGVHTKGADIDALCVAPRHVERSDFFQSFFEKLKHQDGIRNLRAVEDAFVPVIKFEFDGIEIDLVFARLAIQTISDNLDLRDDSRLRSLDIRCIRSLNGCRVTDEILHLVPNKETFRLTLRAVKLWAKRRGIYSNMLGFLGGVSWAMLVARTCQLYPNAAASTLVHKFFLVFSKWEWPNPVLLKQPEESNLNLPVWDPRVNPSDRYHLMPIITPAYPQQNSTYNVSTSTRTVMVEEFKQGLAVTDEILQGKSDWSKLLEPPNFFQKYRHYIVLTASASTEENHLEWVGLVESKIRVLVGNLERNEFITLAHVNPQSFPGNKEHHKDNNYVSMWFLGIIFRRVENAESVNIDLTYDIQSFTDTVYRQANNINMLKEGMKIEATHVKKKQLHHYLPAEILQKKKKQSLSDVNRSSGGLQSKRLSLDSSCLDSSRDTDNGTPFNSPASKSDSPSVGETERNSAEPAAVIVEKPLSVPPAQGLSIPVIGAKVDSTVKTVSPPTVCTIPTVVGRNVIPRITTPHNPAQGQPHLNGMSNITKTVTPKRSHSPSIDGTPKRLKDVEKFIRLESTFKDPRTAEERKRKSVDAIGGESMPIPTIDTSRKKRLPSKELPDSSSPVPANNIRVIKNSIRLTLNR [PAPOLG] | -0.0339 | -0.0762
MKFAYRFSNLLGTVYRRGNLNFTCDGNSVISPVGNRVTVFDLKNNKSDTLPLATRYNVKCVGLSPDGRLAIIVDEGGDALLVSLVCRSVLHHFHFKGSVHSVSFSPDGRKFVVTKGNIAQMYHAPGKKREFNAFVLDKTYFGPYDETTCIDWTDDSRCFVVGSKDMSTWVFGAERWDNLIYYALGGHKDAIVACFFESNSLDLYSLSQDGVLCMWQCDTPPEGLRLKPPAGWKADLLQREEEEEEEEDQEGDRETTIRGKATPAEEEKTGKVKYSRLAKYFFNKEGDFNNLTAAAFHKKSHLLVTGFASGIFHLHELPEFNLIHSLSISDQSIASVAINSSGDWIAFGCSGLGQLLVWEWQSESYVLKQQGHFNSMVALAYSPDGQYIVTGGDDGKVKVWNTLSGFCFVTFTEHSSGVTGVTFTATGYVVVTSSMDGTVRAFDLHRYRNFRTFTSPRPTQFSCVAVDASGEIVSAGAQDSFEIFVWSMQTGRLLDVLSGHEGPISGLCFNPMKSVLASASWDKTVRLWDMFDSWRTKETLALTSDALAVTFRPDGAELAVATLNSQITFWDPENAVQTGSIEGRHDLKTGRKELDKITAKHAAKGKAFTALCYSADGHSILAGGMSKFVCIYHVREQILMKRFEISCNLSLDAMEEFLNRRKMTEFGNLALIDQDAGQEDGVAIPLPGVRKGDMSSRHFKPEIRVTSLRFSPTGRCWAATTTEGLLIYSLDTRVLFDPFELDTSVTPGRVREALRQQDFTRAILMALRLNESKLVQEALEAVPRGEIEVVTSSLPELYVEKVLEFLASSFEVSRHLEFYLLWTHKLLMLHGQKLKSRAGTLLPVIQFLQKSIQRHLDDLSKLCSWNHYNMQYALAVSKQRGTKRSLDPLGSEEEAEASEDDSLHLLGGGGRDSEEEMLA [PWP2] | -1.72 | 0.632
MKGGNADSWQREKLASMESPEEPGASMDENYFVNYTFKDRSHSGRVAQGIMKLCLEEELFADVTISVEGREFQLHRLVLSAQSCFFRSMFTSNLKEAHNRVIVLQDVSESVFQLLVDYIYHGTVKLRAEELQEIYEVSDMYQLTSLFEECSRFLARTVQVGNCLQVMWLADRHSDPELYTAAKHCAKTHLAQLQNTEEFLHLPHRLLTDIISDGVPCSQNPTEAIEAWINFNKEEREAFAESLRTSLKEIGENVHIYLIGKESSRTHSLAVSLHCAEDDSISVSGQNSLCHQITAACKHGGDLYVVGGSIPRRMWKCNNATVDWEWCAPLPRDRLQHTLVSVPGKDAIYSLGGKTLQDTLSNAVIYYRVGDNVWTETTQLEVAVSGAAGANLNGIIYLLGGEENDLDFFTKPSRLIQCFDTETDKCHVKPYVLPFAGRMHAAVHKDLVFIVAEGDSLVCYNPLLDSFTRLCLPEAWSSAPSLWKIASCNGSIYVFRDRYKKGDANTYKLDPATSAVTVTRGIKVLLTNLQFVLA [KBTBD4] | -0.0904 | -0.161
MKLHCEVEVISRHLPALGLRNRGKGVRAVLSLCQQTSRSQPPVRAFLLISTLKDKRGTRYELRENIEQFFTKFVDEGKATVRLKEPPVDICLSKAISSSLKGFLSAMRLAHRGCNVDTPVSTLTPVKTSEFENFKTKMVITSKKDYPLSKNFPYSLEHLQTSYCGLVRVDMRMLCLKSLRKLDLSHNHIKKLPATIGDLIHLQELNLNDNHLESFSVALCHSTLQKSLRSLDLSKNKIKALPVQFCQLQELKNLKLDDNELIQFPCKIGQLINLRFLSAARNKLPFLPSEFRNLSLEYLDLFGNTFEQPKVLPVIKLQAPLTLLESSARTILHNRIPYGSHIIPFHLCQDLDTAKICVCGRFCLNSFIQGTTTMNLHSVAHTVVLVDNLGGTEAPIISYFCSLGCYVNSSDMLK [PPIL5] | -0.0487 | -0.0159

From the supplement of paper PMC5998384
